The subject of one series is A375 cells. Description: Cytotoxicity evaluation on A375 cells. Type of series: cell-based, human. The settings on record: FIG. 1. From the text: (§1) The human cancer cell lines HL60, Namalwa, A-375, COLO205 and Ramos were obtained from the American Type Culture Collection (ATCC). Kara is a murine tumor cell line that has been stably transfected with the human CD33 antigen.

Series [1] relates to COLO 205 (CanAg antigen-positive) cancer cells. Description: Cytotoxicity evaluation on COLO 205 cells. Type of series: cell-based, human. The settings on record: COLO 205 (CanAg antigen-positive) cells, FIG. 1.
Text: as §1

B1: huC242-SSNPB-leptomycin of example 6 (conjugate, chains of the INN, looked up)
VH: QVQLVQSGAEVKKPGETVKISCKASDYTFTYYGMNWVKQAPGQGLKWMGWIDTTTGEPTYAQKFQGRIAFSLETSASTAYLQIKSLKSEDTATYFCARRGPYNWYFDVWGQGTTVTVSS
VL: DIVMTQSPLSVPVTPGEPVSISCRSSKSLLHSNGNTYLYWFLQRPGQSPQLLIYRMSNLVSGVPDRFSGSGSGTAFTLRISRVEAEDVGVYYCLQHLEYPFTFGPGTKLELK
modifications: SSNPB-leptomycin conjugate
The term IC50 denotes the concentration that inhibits the measured activity by half. With B1, the IC50 in the series on A375 cells is over 5 nM; in series [1], 0.13 nM.

The values are drawn from patent publication US7816543B2, “Leptomycin derivatives” (Sanofi-Aventis, priority 2006, dated 2010).
